The target of experiment [1] is T1, Biotinylated human 4Ig B7-H3 (human, UniProt Q5ZPR3 29-461, limits assumed, biotinylated (site not stated)).
T1 construct: Protein captured on the SA chip for SPR; also called 4lg-B7-H3; B7-H3 isoform 4Ig
T1 sequence: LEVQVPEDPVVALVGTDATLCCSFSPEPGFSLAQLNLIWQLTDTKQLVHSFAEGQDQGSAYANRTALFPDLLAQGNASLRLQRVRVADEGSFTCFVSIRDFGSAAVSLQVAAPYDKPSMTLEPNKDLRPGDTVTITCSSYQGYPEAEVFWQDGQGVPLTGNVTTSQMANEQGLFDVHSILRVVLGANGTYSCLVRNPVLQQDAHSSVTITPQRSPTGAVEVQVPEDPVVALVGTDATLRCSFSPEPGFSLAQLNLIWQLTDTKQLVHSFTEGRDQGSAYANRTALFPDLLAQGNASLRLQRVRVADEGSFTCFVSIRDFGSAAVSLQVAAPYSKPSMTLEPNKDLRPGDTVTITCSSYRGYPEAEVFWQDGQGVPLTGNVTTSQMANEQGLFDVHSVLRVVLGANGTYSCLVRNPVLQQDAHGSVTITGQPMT
The experiment is described as follows: SPR 37C; D = 100<KD<=300 nM.

The target of experiment [2] is T1, Biotinylated human 4Ig B7-H3. The experiment is described as follows: SPR 25C; D = 100<KD<=300 nM.
Experiment [3] has the same target. The experiment is described as follows: SPR 37C; C = 10<KD<=100 nM.
Experiment [4] shares this target. Kind of experiment: SPR 25C; C = 10<KD<=100 nM.
Experiment [5] shares this target. Kind of experiment: SPR 25C; B = 1.0<KD<=10 nM.
Experiment [6] shares this target. The experiment is described as follows: SPR 37C; B = 1.0<KD<=10 nM.
Experiment [7] shares this target. The experiment is described as follows: SPR 25C; C = 10<KD<=100 nM. The source holds these as a separate data set.
Experiment [8] shares this target. Kind of experiment: SPR 25C; B = 1.0<KD<=10 nM. The source holds these as a separate data set.
Experiment [9] addresses T2, 2Ig B7-H3 (UniProt Q5ZPR3-2 29-245, limits assumed).
T2 construct: also called 2lg-B7-H3; B7-H3 isoform 2Ig
T2 sequence (looked up): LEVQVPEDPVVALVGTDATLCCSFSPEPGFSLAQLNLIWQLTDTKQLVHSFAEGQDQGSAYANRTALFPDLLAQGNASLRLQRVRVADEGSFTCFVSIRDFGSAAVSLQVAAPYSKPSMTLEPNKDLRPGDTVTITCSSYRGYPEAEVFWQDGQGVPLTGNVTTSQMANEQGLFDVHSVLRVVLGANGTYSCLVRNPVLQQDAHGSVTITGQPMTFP
The experiment is described as follows: SPR, 37C.

Experiment [10] deals with 2Ig B7-H3 (UniProt Q5ZPR3). The experiment is described as follows: SPR, 37C.
In experiment [11] the target is Biotinylated human 4Ig B7-H3 (human) (UniProt Q5ZPR3). The experiment is described as follows: SPR 37C; A = KD<=1.0 nM.
The target in experiment [12] is T1, Biotinylated human 4Ig B7-H3. Kind of experiment: SPR 37C; A = KD<=1.0 nM.
Experiment [13] shares this target. The experiment is described as follows: SPR 25C; A = KD<=1.0 nM.
Experiment [14] deals with T2, 2Ig B7-H3. The experiment is described as follows: SPR, 25C.
In experiment [15] the target is B7-H3 on Calu-6 cells (human) (UniProt Q5ZPR3). The experiment is described as follows: 177Lu-labelled peptide on Calu-6 cells, % cell associated fraction; C = >50%.
The target in experiment [16] is Biotinylated human 4Ig B7-H3 (human) (UniProt Q5ZPR3). The experiment is described as follows: SPR 37C; C = 10<KD<=100 nM.

Starred links: 1 amine or outer side, 2 acyl side, 3 side chain; linkers in the order of their positions; H or OH if unused. Positions of bridges follow the written chain, without caps; N, C: chain ends. Non-standard residues stand in square brackets, D forms with d. Groups on a side chain read outwards from the residue. Primed or numbered codes have the meaning given here. *: point of attachment. (2S,3S)beta‑Me‑Phe = C[C@@H](c1ccccc1)[C@H](N[*:1])C(=O)[*:2]; Ala(piperidin-4-yl) = O=C([C@H](CC1CCN([*:3])CC1)N[*:1])[*:2]; (2S,3S)βMePhe = C[C@@H](c1ccccc1)[C@H](N[*:1])C(=O)[*:2]; DOTA = O=C(O)CN1CCN(CC(=O)O)CCN(CC(=O)*)CCN(CC(=O)O)CC1; PipAla = piperidinyl-alanine residue (as named); Trp(5-F) = N[C@@H](Cc1c[nH]c2ccc(F)cc12)C(=O)O; PEG4′ = 4x 3-(2-aminoethoxy)propanoic acid; Pro(cis-4-F) = O=C(O)[C@@H]1C[C@H](F)CN1; γGlu = O=C(O)[C@H](CCC(=O)[*:2])N[*:1]; Ala(4-THP) = N[C@@H](CC1CCOCC1)C(=O)O; AEF = NCCOc1ccc(C[C@H](N)C(=O)O)cc1; Val(3-OH) = CC(C)(O)[C@H](N)C(=O)O; Hyp = O=C(O)[C@@H]1C[C@@H](O)CN1; 4Pal = N[C@@H](Cc1ccncc1)C(=O)O; aThr = C[C@H](O)[C@H](N)C(=O)O; Tle = CC(C)(C)[C@H](N)C(=O)O; hLeu = CC(C)CC[C@H](N)C(=O)O; Pip = O=C(O)[C@@H]1CCCCN1; Nle = CCCC[C@H](N)C(=O)O; Sar = CNCC(=O)O

B1: Cpd 1 (peptide)
peptide: Ac-MYCVGKYDVYCWF-NH2
modifications: disulfide 3-11
SMILES: CSCC[C@H](NC(C)=O)C(=O)N[C@@H](Cc1ccc(O)cc1)C(=O)N[C@H]1CSSC[C@@H](C(=O)N[C@@H](Cc2c[nH]c3ccccc23)C(=O)N[C@@H](Cc2ccccc2)C(N)=O)NC(=O)[C@H](Cc2ccc(O)cc2)NC(=O)[C@H](C(C)C)NC(=O)[C@H](CC(=O)O)NC(=O)[C@H](Cc2ccc(O)cc2)NC(=O)[C@H](CCCCN)NC(=O)CNC(=O)[C@H](C(C)C)NC1=O
Regarding B1, the KD in experiment [1] and in experiment [2] was 100 to 300 nM in each case. As to Ac-[Nle]YCV[Sar]KYDVYCWF-NH2 (disulfide 3-11) [Cpd 26], the KD in experiment [3] and in [4] was 10 to 100 nM each time. Ac-[Nle]YCVGKYDVYCWFT[dK](DOTA)-NH2 (disulfide 3-11) [Cpd 27]: the KD in experiment [5] and in experiment [6] was 1 to 10 nM in each case.

B2: Cpd 36 (peptide)
peptide: Ac-[Nle]YCVGKYDVYCWF[γGlu][γGlu]-NH2
modifications: disulfide 3-11
SMILES: CCCC[C@H](NC(C)=O)C(=O)N[C@@H](Cc1ccc(O)cc1)C(=O)N[C@H]1CSSC[C@@H](C(=O)N[C@@H](Cc2c[nH]c3ccccc23)C(=O)N[C@@H](Cc2ccccc2)C(=O)N[C@@H](CCC(=O)N[C@@H](CCC(N)=O)C(=O)O)C(=O)O)NC(=O)[C@H](Cc2ccc(O)cc2)NC(=O)[C@H](C(C)C)NC(=O)[C@H](CC(=O)O)NC(=O)[C@H](Cc2ccc(O)cc2)NC(=O)[C@H](CCCCN)NC(=O)CNC(=O)[C@H](C(C)C)NC1=O
Turning to B2, the KD in experiment [1] fell in the range of 100 to 300 nM. Molecule Ac-[hLeu]YCIGK(DOTA)[4Pal]DVYC[Trp(5-F)]F[Pip]-NH2 (disulfide 3-11) [Cpd 269] came in with a KD in experiment [7] of 10 to 100 nM. The molecule Ac-[hLeu]YCIGK(DOTA)[4Pal]DVYC[Trp(5-F)]F[Pro(cis-4-F)]-NH2 (disulfide 3-11) [Cpd 268] registered a KD in experiment [8] of 1 to 10 nM. In the experiment with 2Ig B7-H3 [9], this molecule had a Kd of 7000 nM.

B3: Cpd 28 (peptide)
peptide: Ac-[Nle]YCVGKYDVYCWFT[dK](DOTA)-OH
modifications: disulfide 3-11
SMILES: CCCC[C@H](NC(C)=O)C(=O)N[C@@H](Cc1ccc(O)cc1)C(=O)N[C@H]1CSSC[C@@H](C(=O)N[C@@H](Cc2c[nH]c3ccccc23)C(=O)N[C@@H](Cc2ccccc2)C(=O)N[C@H](C(=O)N[C@H](CCCCNC(=O)CN2CCN(CC(=O)O)CCN(CC(=O)O)CCN(CC(=O)O)CC2)C(=O)O)[C@@H](C)O)NC(=O)[C@H](Cc2ccc(O)cc2)NC(=O)[C@H](C(C)C)NC(=O)[C@H](CC(=O)O)NC(=O)[C@H](Cc2ccc(O)cc2)NC(=O)[C@H](CCCCN)NC(=O)CNC(=O)[C@H](C(C)C)NC1=O
Regarding B3, the KD in experiment [5] and in experiment [6] was 1 to 10 nM throughout. The molecule Ac-[hLeu]YC[Tle]G[PipAla]K([PEG4′-DPTA])DVYC[Trp(5-F)][(2S,3S)beta‑Me‑Phe][Val(3-OH)][dA]-OH (disulfide 3-11 (inferred)) [Cpd 523] returned a Kd in the experiment with 2Ig B7-H3 [10] of 520 nM. Also, the KD in [11] was less than 1 nM.

B4: Cpd 295 (peptide)
peptide: Ac-[hLeu]YCVGK[AEF](DOTA)DVYC[Trp(5-F)]FT-NH2
modifications: disulfide 3-11
SMILES: CC(=O)N[C@@H](CCC(C)C)C(=O)N[C@@H](Cc1ccc(O)cc1)C(=O)N[C@H]1CSSC[C@@H](C(=O)N[C@@H](Cc2c[nH]c3ccc(F)cc23)C(=O)N[C@@H](Cc2ccccc2)C(=O)N[C@H](C(N)=O)[C@@H](C)O)NC(=O)[C@H](Cc2ccc(O)cc2)NC(=O)[C@H](C(C)C)NC(=O)[C@H](CC(=O)O)NC(=O)[C@H](Cc2ccc(OCCNC(=O)CN3CCN(CC(=O)O)CCN(CC(=O)O)CCN(CC(=O)O)CC3)cc2)NC(=O)[C@H](CCCCN)NC(=O)CNC(=O)[C@H](C(C)C)NC1=O
As to B4, the KD in experiment [12] and in [13] was not above 1 nM throughout.

B5: Cpd 301 (peptide)
peptide: Ac-[hLeu]YCVG[Ala(piperidin-4-yl)][AEF](DOTA)DVYC[Trp(5-F)]FP-NH2
modifications: disulfide 3-11
SMILES: CC(=O)N[C@@H](CCC(C)C)C(=O)N[C@@H](Cc1ccc(O)cc1)C(=O)N[C@H]1CSSC[C@@H](C(=O)N[C@@H](Cc2c[nH]c3ccc(F)cc23)C(=O)N[C@@H](Cc2ccccc2)C(=O)N2CCC[C@H]2C(N)=O)NC(=O)[C@H](Cc2ccc(O)cc2)NC(=O)[C@H](C(C)C)NC(=O)[C@H](CC(=O)O)NC(=O)[C@H](Cc2ccc(OCCNC(=O)CN3CCN(CC(=O)O)CCN(CC(=O)O)CCN(CC(=O)O)CC3)cc2)NC(=O)[C@H](CC2CCNCC2)NC(=O)CNC(=O)[C@H](C(C)C)NC1=O
In turn, B5 displayed a Kd with 2Ig B7-H3 [14] of 860 nM. That is a sub-micromolar value.

Ac-[hLeu]YC[Tle]G[PipAla]([PEG4′-DOTA])[Ala(4-THP)]DVYC[Trp(5-F)][(2S,3S)βMePhe][Val(3-OH)][dA]-OH (disulfide 3-11 (inferred)) [Cpd 494]: the % cell associated fraction in [15] is more than 50%. Further, the Kd with 2Ig B7-H3 [10] came to 370 nM. The KD in experiment [11] is less than 1 nM. On to Ac-[Nle]YCVGKYDVYCWF[aThr][dK](DOTA)-NH2 (disulfide 3-11) [Cpd 93], for which, in experiment [4], the equilibrium dissociation constant (KD) fell in the range of 10 to 100 nM. Regarding Ac-[hLeu]YCIGK(DOTA)[4Pal]DVYC[Trp(5-F)]F[Hyp]-NH2 (disulfide 3-11) [Cpd 267], the KD in experiment [7] was in the range of 10 to 100 nM. As for Ac-[hLeu]YC[Tle]GK(DOTA)[Ala(4-THP)]DVYC[Trp(5-F)]F[Val(3-OH)]-OH (disulfide 3-11 (inferred)) [Cpd 322], the KD in [16] lay in the range of 10 to 100 nM.
